Assay results from patent publication US20260116946A1, “NOVEL CD200 FUSION PROTEINS” (DUCENTIS BIOTHERAPEUTICS LIMITED, priority 2022, published 2026).
Where two headings read alike, the source gives them in different places. Each block holds one molecule with its values, some of them ahead of it.

Columns and labels:
[1] = target: Recombinant Cyno CD200R, His-tagged (Creative Biomart CD200R1-3483C) (cynomolgus) (UniProt G7NZT0); assay: SPR (BIAcore T200), CD200-Fc captured on anti-human Fc, cyno CD200R in solution, 25 C
[2] = target: Recombinant Human CD200R, His-tagged (Creative Biomart CD200R1-320H) (human) (UniProt Q8TD46); assay: SPR (BIAcore T200), CD200-Fc captured on anti-human Fc, human CD200R in solution, 25 C
Recombinant Human CD200R, His-tagged (Creative Biomart CD200R1-320H) (human), sequence (Q8TD46 27-266 limits assumed): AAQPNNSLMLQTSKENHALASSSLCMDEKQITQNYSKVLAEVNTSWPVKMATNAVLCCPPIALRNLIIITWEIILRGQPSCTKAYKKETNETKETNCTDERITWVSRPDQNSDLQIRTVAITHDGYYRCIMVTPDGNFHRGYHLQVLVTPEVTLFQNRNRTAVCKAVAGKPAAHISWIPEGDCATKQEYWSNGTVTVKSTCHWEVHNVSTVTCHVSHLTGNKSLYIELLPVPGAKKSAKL

[3] = target: Recombinant Cyno CD200R, His-tagged (Creative Biomart CD200R1-3483C) (cynomolgus) (UniProt G7NZT0); assay: SPR (BIAcore T200), CD200-Fc captured on anti-human Fc, cyno CD200R in solution, 25 C, mean of two runs
[4] = target: Recombinant Human CD200R, His-tagged (Creative Biomart CD200R1-320H) (human) (UniProt Q8TD46); assay: SPR (BIAcore T200), CD200-Fc captured on anti-human Fc, human CD200R in solution, 25 C, mean of two runs
[5] = target: Recombinant Human CD200R, His-tagged (Creative Biomart CD200R1-320H) (human) (UniProt Q8TD46); assay: SPR (BIAcore), DS-155 captured via anti-human Fc, HuCD200R1 as analyte, DRC = 500 nM to 31.25 nM (5 curves), 25 °C, 1:1 Binding fit; Run 1
[6] = target: Recombinant Human CD200R, His-tagged (Creative Biomart CD200R1-320H) (human) (UniProt Q8TD46); assay: SPR (BIAcore), DS-155 captured via anti-human Fc, HuCD200R1 as analyte, DRC = 500 nM to 31.25 nM (5 curves), 25 °C, 1:1 Binding fit; Run 2
[7] = target: Recombinant Cyno CD200R, His-tagged (Creative Biomart CD200R1-3483C) (cynomolgus) (UniProt G7NZT0); assay: SPR (BIAcore), DS-155 captured via anti-human Fc, CynoCD200R1 as analyte, DRC = 1000 nM to 62.5 nM (5 curves), 25 °C, 1:1 Binding fit; Run 1
[8] = target: Recombinant Cyno CD200R, His-tagged (Creative Biomart CD200R1-3483C) (cynomolgus) (UniProt G7NZT0); assay: SPR (BIAcore), DS-155 captured via anti-human Fc, CynoCD200R1 as analyte, DRC = 1000 nM to 62.5 nM (5 curves), 25 °C, 1:1 Binding fit; Run 2
[9] = target: Recombinant Human CD200R, His-tagged (Creative Biomart CD200R1-320H) (human) (UniProt Q8TD46); assay: not described (affinity label of the construct for CD200R)
[10] = target: T1, muCD200R-Fc (Creative Biomart CD200R1-458M) (mouse, UniProt Q9ES57 26-238); assay: SPR, muCD200R-Fc captured on anti-human IgG Fc, CD200 monomers in solution
T1 construct: Bought reagent; also called captured CD200R; not shown: Fc part of the bought fusion; captured on anti-human IgG Fc
T1 sequence (looked up): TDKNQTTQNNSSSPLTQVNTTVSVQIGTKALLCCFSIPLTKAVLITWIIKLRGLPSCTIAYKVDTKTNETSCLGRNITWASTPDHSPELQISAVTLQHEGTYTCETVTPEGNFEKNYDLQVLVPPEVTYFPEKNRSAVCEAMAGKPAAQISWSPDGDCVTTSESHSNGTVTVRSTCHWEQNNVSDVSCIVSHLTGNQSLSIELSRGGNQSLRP
Experimental: For human CD200 constructs: anti-human Fc (GE Healthcare) was covalently immobilized on a BIAcore CM5 sensor chip (Cytiva, BR100530) by amine coupling using a Cytiva kit (BR100839) following the manufacturer's instructions, targeting immobilization of 8,000-11,000 RU. CD200-Fc proteins were diluted to 0.5 μg/mL to 4 μg/mL in running Buffer (1×HBS-EP+pH7.4 (Cytiva BR100669), HEPES Buffered Saline pH 7.4 containing 3 mM EDTA and 0.05% v/v Surfactant P20) and flowed for 25 to 100 seconds at […] over the immobilized Anti-Human IgG Fc, with a stabilization time of 60 seconds. Between 35 and 250 RUs of CD200-Fc were captured, with higher RUs used for cynomolgus CD200R binding experiments. […] Analysis temperature was 25° C. This was followed by regeneration of the surface with 30-90 second pulse of 3M MgCl₂ flowed at 30 μL/min flow rate followed by stabilization of the surface with 60 second flow of running buffer.
(§1) For mouse CD200 constructs, muCD200R-Fc (Creative Biomart CD200R1-458M) diluted to 1 μg/mL in running buffer was flowed over the immobilized Anti-Human IgG Fc, with CD200 monomers serially diluted and flowed over captured CD200R. Other details were as above. Data analysis: experimental sensorgrams were analyzed in BIAevaluation software (GE Healthcare). The curves obtained were fitted to 1:1 Langmuir binding model by setting Rmax and RI as local parameters. Rate equations using standard parameters (e.g. ligand concentration, time) were used for iterative curve fitting. Closeness of fit was determined by algorithms provided by the manufacturer in the BIAevaluation software, and data accepted if the Chi² value was less than 10% of Rₘₐₓ, and the U value was less than or equal to 15.

muCD200R-Fc = target: T2, muCD200R-Fc (Mus musculus, UniProt Q9ES57); assay: BIAcore SPR binding of murine CD200 variants to muCD200R-Fc
T2 construct: purchased Creative Biomart CD200R1-458M
T2 sequence (Q9ES57 26-238 limits assumed): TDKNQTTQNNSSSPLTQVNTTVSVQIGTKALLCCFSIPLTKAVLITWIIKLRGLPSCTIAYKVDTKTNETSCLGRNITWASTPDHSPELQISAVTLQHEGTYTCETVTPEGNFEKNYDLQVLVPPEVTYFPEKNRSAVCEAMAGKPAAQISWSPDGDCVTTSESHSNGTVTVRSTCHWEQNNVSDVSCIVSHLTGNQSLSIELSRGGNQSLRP
Experimental: as §1, with “Chi^2” for “Chi²”, “Rmax,” for “Rₘₐₓ,”
Murine CD200 constructs used Uniprot sequence O54901, containing the signal peptide and extracellular domains. Mutation numbers refer to the full Uniprot sequences including signal peptide.
Proteins were generated by transient transfection of pcDNA 3.1-based expression plasmids into CHO-3E7 cells using Polyethyleneimine (PEI). 24 hours post transfection, cultures were shifted to 32° C., fed with 10% feed C, glutamine, glucose and […] Sodium butyrate; supernatants were harvested and filtered at day 7. Purification was performed at 4° C. using MabSelect SuRe 5 ml affinity columns (Cytiva), pre-equilibrated with 50 mM Sodium Phosphate, 150 mM NaCl PH 7.4, at a flowrate of 3 mL/min on a AKTA Pure platform. The column was washed with equilibration buffer and bound protein eluted using 20 mM sodium acetate, 150 mM NaCl pH 3.5. Elutes were neutralized with 10% v/v 1 M Tris pH 8.0 and analysed by SDS-PAGE. Pooled fractions were concentrated to 5 mL and subjected to gel-filtration chromatography (Hiload 16/600 Superdex-200 pg column) on a AKTA Pure platform. The protein was processed in 50 mM Sodium Phosphate, 150 mM NaCl pH 7.4 buffer system at 1.2 mL/min. Fractions containing protein were pooled and concentrated using an Amicon Ultra Centricon (10 kDa molecular weight cut-off) to 1.33 mg/mL (measured at UV 280 nm). The purified material was subjected to SEC-HPLC, LC-MS and EndoSafe LAL cartridge test to assess protein purity, molecular mass and endotoxin content, respectively. Mouse CD200-his proteins were purified with Ni-NTA agarose resin using standard methodology. All proteins were stored at −80° C.

male DBA/1J mice = assay: Mouse collagen-induced arthritis (CIA) model, preventative dosing; assay type: in vivo; details: 3 mg/kg once every 3 days, day 22 to 36; scores day 25-36
Experimental: Wild type (DS-198) and higher affinity (DS-227) murine CD200-Fc proteins were tested using a CIA model by initiating dosing just prior to symptom onset. Arthritis was induced in male DBA/1J mice by intradermal injection of bovine type II collagen in CFA (complete Freund's adjuvant) on day 1, followed by a booster injection in incomplete Freund's adjuvant on day 21. […] Clinical scores of paw arthritis (blinded assessment) were measured from day 25-36 on alternate days. The data in FIG. 9 are shown as Mean±SEM. **p<0.01; ***p<0.001 vs Disease+Dexa, Disease+DS-198, & Disease+DS-227. Two-way RM ANOVA followed by Tukey's multiple comparisons test.

[11] = murine CD200, stated in text, read-out: binding affinity

t½ [1]: 12 s | Kd [3]: 971 nM | koff [3]: 0.0586 s⁻¹ | kon [3]: 60600 M⁻¹ s⁻¹ | Kd [7]: 888 nM | koff [7]: 0.0564 s⁻¹ | kon [7]: 63500 M⁻¹ s⁻¹ | Kd [8]: 1050 nM | koff [8]: 0.0608 s⁻¹ | kon [8]: 57600 M⁻¹ s⁻¹
Molecule: DS-155 (wild-type human CD200-Fc, IgG4 S228P) (from UniProt P41217 31-232; P01861 99-327) (Fc fusion)
t½ [2]: 21 s | Kd [4]: 179 nM | koff [4]: 0.0326 s⁻¹ | kon [4]: 183000 M⁻¹ s⁻¹ | Kd [5]: 174 nM | koff [5]: 0.0324 s⁻¹ | kon [5]: 186000 M⁻¹ s⁻¹ | Kd [6]: 183 nM | koff [6]: 0.0329 s⁻¹ | kon [6]: 180000 M⁻¹ s⁻¹

Molecule: DS-192 (human CD200 K130Y - IgG4 S228P Fc) (from UniProt P41217 31-232; P01861 99-327) (Fc fusion)
Kd [9]: 13 nM

T1/2 [10]: 17.3 s
B1: murine CD200 wild type (Table 7 'wt') (ligand, mouse, UniProt O54901 31-232, looked up)
chain: QVEVVTQDERKALHTTASLRCSLKTSQEPLIVTWQKKKAVSPENMVTYSKTHGVVIQPAYKDRINVTELGLWNSSITFWNTTLEDEGCYMCLFNTFGSQKVSGTACLTLYVQPIVHLHYNYFEDHLNITCSATARPAPAISWKGTGTGIENSTESHFHSNGTTSVTSILRVKDPKTQVGKEVICQVLYLGNVIDYKQSLDKG
notes: extracellular domain; The Fc fusion with the same CD200 part is DS-198 (muIgG2a); also called mouse CD200-his; CD200 monomer

Kd (muCD200R-Fc; [11]): 43 nM
B2: DS-227: high affinity murine CD200-Fc, CD200 H82Y, T125I, muIgG2a Fc (protein)
chain: QVEVVTQDERKALHTTASLRCSLKTSQEPLIVTWQKKKAVSPENMVTYSKTYGVVIQPAYKDRINVTELGLWNSSITFWNTTLEDEGCYMCLFNIFGSQKVSGTACLTLYVQPIVHLHYNYFEDHLNITCSATARPAPAISWKGTGTGIENSTESHFHSNGTTSVTSILRVKDPKTQVGKEVICQVLYLGNVIDYKQSLDKG
modifications: left off: small tags and cut ends
clinical score of paw arthritis (male DBA/1J mice): significantly more potent in reducing clinical score than wild type (DS-198)

Kd (muCD200R-Fc; [11]): 43 nM | Kd (muCD200R-Fc; murine CD200 variants, table head prints no unit, nM, read-out: KD): 43.3 ± 4.9 nM | fold higher binding affinity than wild type (muCD200R-Fc; versus wild type murine CD200): approximately 14 fold
B3: H82Y, T125I: murine CD200 combination variant H82Y, T125I of Table 7 (protein)
chain: QVEVVTQDERKALHTTASLRCSLKTSQEPLIVTWQKKKAVSPENMVTYSKTYGVVIQPAYKDRINVTELGLWNSSITFWNTTLEDEGCYMCLFNIFGSQKVSGTACLTLYVQPIVHLHYNYFEDHLNITCSATARPAPAISWKGTGTGIENSTESHFHSNGTTSVTSILRVKDPKTQVGKEVICQVLYLGNVIDYKQSLDKG

T1/2 [10]: 118 s | fold higher binding affinity than wild type [10]: ~14 fold
B4: murine CD200 H82Y, T125I (Table 7 combination variant) (ligand, mouse, UniProt O54901 31-232, looked up)
chain: QVEVVTQDERKALHTTASLRCSLKTSQEPLIVTWQKKKAVSPENMVTYSKTYGVVIQPAYKDRINVTELGLWNSSITFWNTTLEDEGCYMCLFNIFGSQKVSGTACLTLYVQPIVHLHYNYFEDHLNITCSATARPAPAISWKGTGTGIENSTESHFHSNGTTSVTSILRVKDPKTQVGKEVICQVLYLGNVIDYKQSLDKG
notes: extracellular domain; The Fc fusion with the same mutations is DS-227 (muIgG2a, called '43 nM muCD200-Fc'); also called combination variant H82Y, T1251; mouse CD200-his
